Assay results taken from patent US20240226357A1, “Sanitization Method for Affinity Chromatography Matrices” (priority 2015, published 2024).

Assay: LC chromatograms (LC-MS) of ligands before and after incubation in 0.1 M peracetic acid
Format: physicochemical
Details: 1 h incubation in 0.1 M peracetic acid, UV 280 nm
Method: The kinetics was measured by Surface Plasmon Resonance on a Biacore™ instrument. […] 1 ml rPrL and KappaSelect ligand were diluted to 10 mg/ml. • 3. Reference sample (0 h) was withdrawn, 100 μl and buffer exchanged to 50 mM Ammonium Bicarbonate. • 4. 10% 1 M PAA was added and the incubations started. • 5. Samples were withdrawn after 1, 2, 4, 8, 16 and 24 h, 100 μl and buffer exchanged to 50 mM Ammonium Bicarbonate to stop the oxidation reaction. • 6. The concentrations were measured in all samples by measuring the UV absorbance at 276 nm. • 7. The samples were then analyzed on LC-MS and Biacore.

B1: rPrL: recombinant Protein L (protein)
chain: AVENKEETPETPETDSEEEVTIKANLIFANGSTQTAEFKGTFEKATSEAYAYADTLKKDNGEYTVDVADKGYTLNIKFAGKEKTPEEPKEEVTIKANLIYADGKTQTAEFKGTFEEATAEAYRYADALKKDNGEYTVDVADKGYTLNIKFAGKEKTPEEPKEEVTIKANLIYADGKTQTAEFKGTFEEATAEAYRYADLLAKENGKYTVDVADKGYTLNIKFAGKEKTPEEPKEEVTIKANLIYADGKTQTAEFKGTFAEATAEAYRYADLLAKENGKYTADLEDGGYTINIRFAGKKVDEKPEE
LC chromatograms before and after SIP (degradation): no signs of degradation
